B1: Contactin-associated protein-like 2 (Homo sapiens), Q9UHC6-1 (parent)
chain: MQAAPRAGCGAALLLWIVSSCLCRAWTAPSTSQKCDEPLVSGLPHVAFSSSSSISGSYSPGYAKINKRGGAGGWSPSDSDHYQWLQVDFGNRKQISAIATQGRYSSSDWVTQYRMLYSDTGRNWKPYHQDGNIWAFPGNINSDGVVRHELQHPIIARYVRIVPLDWNGEGRIGLRIEVYGCSYWADVINFDGHVVLPYRFRNKKMKTLKDVIALNFKTSESEGVILHGEGQQGDYITLELKKAKLVLSLNLGSNQLGPIYGHTSVMTGSLLDDHHWHSVVIERQGRSINLTLDRSMQHFRTNGEFDYLDLDYEITFGGIPFSGKPSSSSRKNFKGCMESINYNGVNITDLARRKKLEPSNVGNLSFSCVEPYTVPVFFNATSYLEVPGRLNQDLFSVSFQFRTWNPNGLLVFSHFADNLGNVEIDLTESKVGVHINITQTKMSQIDISSGSGLNDGQWHEVRFLAKENFAILTIDGDEASAVRTNSPLQVKTGEKYFFGGFLNQMNNSSHSVLQPSFQGCMQLIQVDDQLVNLYEVAQRKPGSFANVSIDMCAIIDRCVPNHCEHGGKCSQTWDSFKCTCDETGYSGATCHNSIYEPSCEAYKHLGQTSNYYWIDPDGSGPLGPLKVYCNMTEDKVWTIVSHDLQMQTPVVGYNPEKYSVTQLVYSASMDQISAITDSAEYCEQYVSYFCKMSRLLNTPDGSPYTWWVGKANEKHYYWGGSGPGIQKCACGIERNCTDPKYYCNCDADYKQWRKDAGFLSYKDHLPVSQVVVGDTDRQGSEAKLSVGPLRCQGDRNYWNAASFPNPSSYLHFSTFQGETSADISFYFKTLTPWGVFLENMGKEDFIKLELKSATEVSFSFDVGNGPVEIVVRSPTPLNDDQWHRVTAERNVKQASLQVDRLPQQIRKAPTEGHTRLELYSQLFVGGAGGQQGFLGCIRSLRMNGVTLDLEERAKVTSGFISGCSGHCTSYGTNCENGGKCLERYHGYSCDCSNTAYDGTFCNKDVGAFFEEGMWLRYNFQAPATNARDSSSRVDNAPDQQNSHPDLAQEEIRFSFSTTKAPCILLYISSFTTDFLAVLVKPTGSLQIRYNLGGTREPYNIDVDHRNMANGQPHSVNITRHEKTIFLKLDHYPSVSYHLPSSSDTLFNSPKSLFLGKVIETGKIDQEIHKYNTPGFTGCLSRVQFNQIAPLKAALRQTNASAHVHIQGELVESNCGASPLTLSPMSSATDPWHLDHLDSASADFPYNPGQGQAIRNGVNRNSAIIGGVIAVVIFTILCTLVFLIRYMFRHKGTYHTNEAKGAESAESADAAIMNNDPNFTETIDESKKEWLI
partner: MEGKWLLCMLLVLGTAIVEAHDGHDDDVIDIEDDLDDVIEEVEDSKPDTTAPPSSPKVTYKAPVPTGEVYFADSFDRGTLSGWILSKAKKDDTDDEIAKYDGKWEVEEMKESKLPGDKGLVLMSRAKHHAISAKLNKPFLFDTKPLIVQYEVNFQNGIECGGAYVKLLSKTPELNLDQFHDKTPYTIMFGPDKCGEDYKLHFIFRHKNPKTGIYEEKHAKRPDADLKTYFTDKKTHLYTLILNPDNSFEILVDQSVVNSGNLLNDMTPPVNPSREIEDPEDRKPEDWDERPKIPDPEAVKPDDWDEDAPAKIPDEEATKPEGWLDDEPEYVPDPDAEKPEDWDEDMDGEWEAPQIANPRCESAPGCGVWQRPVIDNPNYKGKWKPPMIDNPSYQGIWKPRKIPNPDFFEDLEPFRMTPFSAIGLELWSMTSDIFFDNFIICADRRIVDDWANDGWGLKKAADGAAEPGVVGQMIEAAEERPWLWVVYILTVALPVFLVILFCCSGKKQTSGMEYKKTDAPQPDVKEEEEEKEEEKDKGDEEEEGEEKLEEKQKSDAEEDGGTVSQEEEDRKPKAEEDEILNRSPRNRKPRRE

Variants of: B1
Conditions: with calx_human CANX

Variant | effect of a mutation on the interaction
D1129H | increasing interaction strength
